# Measurements published in article PMC12212138, “Crystal structure and mutagenesis of a nucleic acid–binding BRCT domain in human PARP4”.
# T1: PARP4 BRCT-WGR-CAT K23/24Q (human, UniProt Q9UKK3 1-573, K23Q;K24Q)
# T1 sequence: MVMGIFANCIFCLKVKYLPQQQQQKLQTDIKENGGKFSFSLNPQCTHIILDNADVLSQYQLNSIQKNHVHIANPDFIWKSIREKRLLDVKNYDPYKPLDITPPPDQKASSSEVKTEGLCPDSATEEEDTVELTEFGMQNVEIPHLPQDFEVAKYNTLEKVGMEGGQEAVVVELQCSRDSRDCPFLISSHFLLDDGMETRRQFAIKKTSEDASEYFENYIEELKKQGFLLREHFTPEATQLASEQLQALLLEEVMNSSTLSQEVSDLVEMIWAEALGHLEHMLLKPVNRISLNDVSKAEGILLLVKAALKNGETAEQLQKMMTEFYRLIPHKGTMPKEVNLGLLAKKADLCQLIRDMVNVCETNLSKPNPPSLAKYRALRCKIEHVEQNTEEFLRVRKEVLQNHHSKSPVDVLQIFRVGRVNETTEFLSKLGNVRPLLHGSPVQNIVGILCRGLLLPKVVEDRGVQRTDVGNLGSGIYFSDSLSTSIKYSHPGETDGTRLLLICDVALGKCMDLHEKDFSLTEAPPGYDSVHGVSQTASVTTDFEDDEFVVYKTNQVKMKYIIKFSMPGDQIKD
# B1: vtRNA1-3 (structured_RNA)
# RNA: GGCUGGCUUUAGCUCAGCGGUUACUUCGCGUGUCAUCAAACCACCUCUCUGGGUUGUUCGAGACCCGCGGGCGCUCUCCAGCCCUCUU
# Molecular target: T1, PARP4 BRCT-WGR-CAT K23/24Q
# Experiment: EMSA; 20 nM probe; rough estimate; FP: 50 mM Tris pH 7.5, 50 mM NaCl, 1 mM MgCl2, 0.05% NP40, 2 mM DTT, 5% glycerol, 25 ug/ml BSA, room temp 30 min; EMSA: 50 mM Tris pH 7.5, 50 mM NaCl, 4% Ficoll PM400, 0.05% NP40, 2 mM DTT, 0-18 uM protein, room temp 30 min, gel at 4 C
# Conditions: protein: recombinant; tags: N-terminal His-SUMO removed by TEV; label: 5'-6-FAM; predicted intramolecular fold
binder,measurement,value
B1,Kd,~54 µM
